From patent US20100135997A1 (MEDGENE, published 2010) come the findings set out here.

The test concerns the target T1, HLA-A*0201 loaded with the Carcinoembryonic antigen (CEA)-derived … peptide (biotin on the C-terminal biotinylation tag).
T1 construct: Soluble, biotinylated, immobilised on a streptavidin chip
Put plainly: Biacore SPR. The protocol:
SPR measures changes in refractive index expressed in response units (RU) near a sensor surface within a small flow cell, a principle that can be used to detect receptor ligand interactions and to analyse their affinity and kinetic parameters. The probe flow cells were prepared by immobilising the pMHC complexes in flow cells via biotin-tag binding. The assay was then performed by passing soluble ILT-like molecule over the surfaces of the different flow cells at a constant flow rate, measuring the SPR response in doing so.
(In general: Surface plasmon resonance follows binding to a sensor surface in real time, without labels.)

A word on the Kd: it is the constant that tells how readily two partners part at equilibrium. Low readings indicate higher affinity, high ones lower affinity. Usually koff stands for a measure of how fast the partners let go of each other.

B1: SEQ ID NO 19 (receptor)
chain: MAGHLPKPTLWAEPGSVITMDQPVTLRCQGGQETQEYRLYREKKTAPWITRIPQELVKKGQFPIPSITWEHAGRYRCYYGSDTSQWSASSDPLELVVTGVYIKPTLSAQPSPVVNSGGNVTLQCDSQVAFDGFILCKEGEDEHPQCLNSQPHARGSSRAIFSVGPVSPSRRWWYRCYAYMSWSPYEWSLPSDLLELDVDG
notes: mutated soluble two domain ILT-2; also called clone 83; Clone c83
Regarding B1, the Kd was ≤ 1000 nM and the koff was ≤ 2 s⁻¹.

B2: SEQ ID NO 23 (receptor)
chain: MAGHLPKPTLWAEPGSVITMDQPVTLRCQGGQETQEYRLYREKKTAPWITRIPQELVKKGQFPIPSITWEHAGRYRCYYGSDTSQWSASSDPLELVVTGVYIKPTLSAQPSPVVNSGGNVTLQCDSQVAFDGFILCKEGEDEHPQCLNSQPHARGSSRAIFSVGPVSPSRRWWYRCYAYVEWLPYEWSLPSDLLELDVDG
notes: mutated soluble two domain ILT-2
Take B2: the Kd was ≤ 1000 nM and the koff is ≤ 2 s⁻¹.

B3: SEQ ID NO 9 (receptor)
chain: MAGHLPKPTLWAEPGSVITMDQPVTLRCQGGQETQEYRLYREKKTAPWITRIPQELVKKGQFPIPSITWEHAGRYRCYYGSDTSQWSASSDPLELVVTGVYIKPTLSAQPSPVVNSGGNVTLQCDSQVAFDGFILCKEGEDEHPQCLNSQPHARGSSRAIFSVGPVSPSRRWWYRCYAYMNWAPYEWSLPSDLLELDVDG
notes: as for B2
For B3, the Kd was ≤ 1000 nM and the koff is ≤ 2 s⁻¹.

B4: SEQ ID NO 22 (receptor)
chain: MAGHLPKPTLWAEPGSVITMDQPVTLRCQGGQETQEYRLYREKKTAPWITRIPQELVKKGQFPIPSITWEHAGRYRCYYGSDTSQWSASSDPLELVVTGVYIKPTLSAQPSPVVNSGGNVTLQCDSQVAFDGFILCKEGEDEHPQCLNSQPHARGSSRAIFSVGPVSPSRRWWYRCYAYGRWLPYEWSLPSDLLELDVDG
notes: as for B2
On to B4, for which the Kd was ≤ 1000 nM and the dissociation rate constant (koff) was ≤ 2 s⁻¹.

B5: SEQ ID NO 10 (receptor)
chain: MAGHLPKPTLWAEPGSVITMDQPVTLRCQGGQETQEYRLYREKKTAPWITRIPQELVKKGQFPIPSITWEHAGRYRCYYGSDTSQWSASSDPLELVVTGVYIKPTLSAQPSPVVNSGGNVTLQCDSQVAFDGFILCKEGEDEHPQCLNSQPHARGSSRAIFSVGPVSPSRRWWYRCYAYTDYSPYEWSLPSDLLELDVDG
notes: as for B2
With B5, the Kd was ≤ 1000 nM and the koff was ≤ 2 s⁻¹.

B6: SEQ ID NO 14 (receptor)
chain: MAQHLPKPTLWAEPGSVITMDQPVTLRCQGGQETQEYRLYREKKTAPWITRIPQELVKKGQFPIPSITWEHAGRYRCYYGSDTSQWSASSDPLELVVTGVYIKPTLSAQPSPVVNSGGNVTLQCDSQVDFDGFILCKEGEDEHPQCLNSQPHARGSSRAIFSVGPVSPSRRWWYRCYAYDSNSPYEWSLPSDLLELDVDG
notes: as for B2
In the case of B6, the Kd is ≤ 1000 nM and the koff is ≤ 2 s⁻¹.

B7: SEQ ID NO 8 (receptor)
chain: MAGHLPKPTLWAEPGSVITMDQPVTLRCQGGQETQEYRLYREKKTAPWITRIPQELVKKGQFPIPSITWEHAGRYRCYYGSDTSQWSASSDPLELVVTGVYIKPTLSAQPSPVVNSGGNVTLQCDSQVAFDGFILCKEGEDEHPQCLNSQPHARGSSRAIFSVGPVSPSRRWWYRCYAYVAWAPYEWSLPSDLLELDVDG
notes: as for B2
For the molecule B7, the Kd was ≤ 1000 nM and the koff is ≤ 2 s⁻¹.

B8: SEQ ID NO 32 (receptor)
chain: MAGHLPKPTLWAEPGSVITQGSPVTLRCQGGQETQEYRLYREKKTAPWITRIPQELVKKGQFPIPSITWEHAGRYRCYYGSDTSQWSASSDPLELVVTGVYIKPTLSAQPSPVVNSGGNVTLQCDSQVAFDGFILCKEGEDEHPQCLNSQPHARGSSRAIFSVGPVSPSRRWWYRCYAYVAWAPYEWSLPSDLLELDVDG
notes: as for B2
In the case of B8, the Kd was ≤ 1000 nM and the koff was ≤ 2 s⁻¹.

B9: SEQ ID NO 16 (receptor)
chain: MAQHLPKPTLWAEPGSVITMDQPVTLRCQGGQETQEYRLYREKKTAPWITRIPQELVKKGQFPIPSITWEHAGRYRCYYGSDTSQWSASSDPLELVVTGVYIKPTLSAQPSPVVNSGGNVTLQCDSQVTFDGFILCKEGEDEHPQCLNSQPHARGSSRAIFSVGPVSPSRRWWYRCYAYDSNSPYEWSLPSDLLELDVDG
notes: as for B2
Turning to B9, the Kd is ≤ 1000 nM and the koff is ≤ 2 s⁻¹.

B10: SEQ ID NO 30 (receptor)
chain: MAGHLPKPTLWAEPGSVITQGSPVTLRCQGGQETQEYRLYREKKTAPWITRIPQELVKKGQFPIPSITWEHAGRYRCYYGSDTSQWSASSDPLELVVTGVYIKPTLSAQPSPVVNSGGNVTLQCDSQVAFDGFILCKEGEDEHPQCLNSQPHARGSSRAIFSVGPVSPSRRWWYRCYAYPIWTPYEWSLPSDLLELDVDG
notes: as for B2
On to B10, for which the Kd is ≤ 1000 nM and the dissociation rate constant (koff) is ≤ 2 s⁻¹.

B11: SEQ ID NO 12 (receptor)
chain: MAGHLPKPTLWAEPGSVITMDQPVTLRCQGGQETQEYRLYREKKTAPWITRIPQELVKKGQFPIPSITWEHAGRYRCYYGSDTSQWSASSDPLELVVTGVYIKPTLSAQPSPVVNSGGNVTLQCDSQVAFDGFILCKEGEDEHPQCLNSQPHARGSSRAIFSVGPVSPSRRWWYRCYAYVSYWPYEWSLPSDLLELDVDG
notes: as for B2
Take B11: the Kd is ≤ 1000 nM and the koff was ≤ 2 s⁻¹.

B12: SEQ ID NO 20 (receptor)
chain: MAGHLPKPTLWAEPGSVITMDQPVTLRCQGGQETQEYRLYREKKTAPWITRIPQELVKKGQFPIPSITWEHAGRYRCYYGSDTSQWSASSDPLELVVTGVYIKPTLSAQPSPVVNSGGNVTLQCDSQVAFDGFILCKEGEDEHPQCLNSQPHARGSSRAIFSVGPVSPSRRWWYRCYAYPDFTPYEWSLPSDLLELDVDG
notes: as for B2
On to B12, for which the Kd is ≤ 1000 nM and the koff is ≤ 2 s⁻¹.

B13: SEQ ID NO 34 (receptor)
chain: MAGHLPKPTLWAEPGSVITQGSPVTLRCQGGQETQEYRLYREKKTAPWITRIPQELVKKGQFPIPSITWEHAGRYRCYYGSDTSQWSASSDPLELVVTGVYIKPTLSAQPSPVVNSGGNVTLQCDSQVAFDGFILCKEGEDEHPQCLNSQPHARGSSRAIFSVGPVSPSRRWWYRCYAYMNWAPYEWSLPSDLLELDVDG
notes: as for B2
On to B13, for which the Kd was ≤ 1000 nM and the koff is ≤ 2 s⁻¹.

B14: SEQ ID NO 18 (receptor)
chain: MAGHLPKPTLWAEPGSVITMDQPVTLRCQGGQETQEYRLYREKKTAPWITRIPQELVKKGQFPIPSITWEHAGRYRCYYGSDTSQWSASSDPLELVVTGVYIKPTLSAQPSPVVNSGGNVTLQCDSQVAFDGFILCKEGEDEHPQCLNSQPHARGSSRAIFSVGPVSPSRRWWYRCYAYMSWAPYEWSLPSDLLELDVDG
notes: as for B2
Regarding B14, the Kd is ≤ 1000 nM and the koff is ≤ 2 s⁻¹.

B15: SEQ ID NO 13 (receptor)
chain: MAGHLPKPTLWAEPGSVITMDQPVTLRCQGGQETQEYRLYREKKTAPWITRIPQELVKKGQFPIPSITWEHAGRYRCYYGSDTSQWSASSDPLELVVTGVYIKPTLSAQPSPVVNSGGNVTLQCDSQVAFDGFILCKEGEDEHPQCLNSQPHARGSSRAIFSVGPVSPSRRWWYRCYAYPAWTPYEWSLPSDLLELDVDG
notes: as for B2
As to B15, the Kd is ≤ 1000 nM and the koff was ≤ 2 s⁻¹.

B16: SEQ ID NO 36 (receptor)
chain: MAGHLPKPTLWAEPGSVITQGSPVTLRCQGGQETQEYRLYREKKTAPWITRIPQELVKKGQFPIPSITWEHAGRYRCYYGSDTSQWSASSDPLELVVTGVYIKPTLSAQPSPVVNSGGNVTLQCDSQVAFDGFILCKEGEDEHPQCLNSQPHARGSSRAIFSVGPVSPSRRWWYRCYAYPAWTPYEWSLPSDLLELDVDG
notes: as for B2
Regarding B16, the Kd was ≤ 1000 nM and the koff was ≤ 2 s⁻¹.

B17: SEQ ID NO 7 (receptor)
chain: MAGHLPKPTLWAEPGSVITMDQPVTLRCQGGQETQEYRLYREKKTAPWITRIPQELVKKGQFPIPSITWEHAGRYRCYYGSDTSQWSASSDPLELVVTGVYIKPTLSAQPSPVVNSGGNVTLQCDSQVAFDGFILCKEGEDEHPQCLNSQPHARGSSRAIFSVGPVSPSRRWWYRCYAYPIWTPYEWSLPSDLLELDVDG
notes: as for B2
Take B17: the Kd is ≤ 1000 nM and the koff is ≤ 2 s⁻¹.

B18: SEQ ID NO 15 (receptor)
chain: MAQHLPKPTLWAEPGSVITMDQPVTLRCQGGQETQEYRLYREKKTAPWITRIPQELVKKGQFPIPSITWEHAGRYRCYYGSDTSQWSASSDPLELVVTGVYIKPTLSAQPSPVVNSGGNVTLQCDSQVSFDGFILCKEGEDEHPQCLNSQPHARGSSRAIFSVGPVSPSRRWWYRCYAYDSNSPYEWSLPSDLLELDVDG
notes: as for B2
B18: the Kd is ≤ 1000 nM and the koff is ≤ 2 s⁻¹.

B19: SEQ ID NO 17 (receptor)
chain: MAQHLPKPTLWAEPGSVITMDQPVTLRCQGGQETQEYRLYREKKTAPWITRIPQELVKKGQFPIPSITWEHAGRYRCYYGSDTSQWSASSDPLELVVTGVYIKPTLSAQPSPVVNSGGNVTLQCDSQVAYDGFILCKEGEDEHPQCLNSQPHARGSSRAIFSVGPVSPSRRWWYRCYAYDSNSPYEWSLPSDLLELDVDG
notes: as for B2
B19: the Kd was ≤ 1000 nM and the koff was ≤ 2 s⁻¹.

B20: SEQ ID NO 21 (receptor)
chain: MAGHLPKPTLWAEPGSVITMDQPVTLRCQGGQETQEYRLYREKKTAPWITRIPQELVKKGQFPIPSITWEHAGRYRCYYGSDTSQWSASSDPLELVVTGVYIKPTLSAQPSPVVNSGGNVTLQCDSQVAFDGFILCKEGEDEHPQCLNSQPHARGSSRAIFSVGPVSPSRRWWYRCYAYPWFTPYEWSLPSDLLELDVDG
notes: as for B2
As for B20, the Kd is ≤ 1000 nM and the koff is ≤ 2 s⁻¹.

B21: SEQ ID NO 11 (receptor)
chain: MAGHLPKPTLWAEPGSVITMDQPVTLRCQGGQETQEYRLYREKKTAPWITRIPQELVKKGQFPIPSITWEHAGRYRCYYGSDTSQWSASSDPLELVVTGVYIKPTLSAQPSPVVNSGGNVTLQCDSQVAFDGFILCKEGEDEHPQCLNSQPHARGSSRAIFSVGPVSPSRRWWYRCYAYVDWFPYEWSLPSDLLELDVDG
notes: as for B2
In the case of B21, the Kd was ≤ 1000 nM and the koff is ≤ 2 s⁻¹.
